Patent US10221215 (NEW YORK UNIVERSITY, dated 2019)
Positions of bridges follow the written chain, without caps; N, C: chain ends. Non-standard residues stand in square brackets, D forms with d. No end group written: not given here. Aib = CC(C)(N)C(=O)O

Each binder was assayed against Ras (residues 1-166 of human Ha-Ras) (human, UniProt P01112 1-166) (assay: cell-based or functional assay).

Row | % Inhibition (Sos-mediated nucleotide exchange from Ras, mantGDP) [%] | Binder
1 | 40 | FEGIYRTELLKAEEAN (staple (positions not given here); also: HBS: N-terminal main-chain i,i+4 H-bond replaced by C-C bond (ring-closing metathesis), residues 1-4) [HBS 6]
2 | 50 | FEAIYRLELLKAEEAN (staple (positions not given here); also: HBS: N-terminal main-chain i,i+4 H-bond replaced by C-C bond (ring-closing metathesis), residues 1-4) [HBS 13]
3 | 20 | FEGIYRLELLK[Aib]EE[Aib]N (staple (positions not given here); not fully specified (C-terminus, bridges); also: hydrogen bond surrogate: N-terminal main-chain i,i+4 H-bond replaced by C-C bond) [HBS 11]
4 | 64 | FEGIYRLELLKAEEAN (staple (positions not given here); also: HBS: N-terminal main-chain i,i+4 H-bond replaced by C-C bond (ring-closing metathesis), residues 1-4) [HBS 7]
5 | < 5 | FEGIYRLELLK [Peptide 8]
6 | 50 | FEAIYRLEKLKAEEAN [Peptide 15]
7 | 11 | FEGIYRTDILRTEEGN (staple (positions not given here); also: HBS: N-terminal main-chain i,i+4 H-bond replaced by C-C bond (ring-closing metathesis), residues 1-4) [HBS 1]
8 | 35 | FEGLLRLWLRK[Aib]EEAN (staple (positions not given here); not fully specified (C-terminus, bridges); also: hydrogen bond surrogate: N-terminal main-chain i,i+4 H-bond replaced by C-C bond) [HBS 9]
9 | 50 | FEGLLRLWLRKAEEAN [Peptide 12]
10 | 40 | FEAIYRLELLKAEEAN [Peptide 13]
11 | 15 | AEGIYRLELLKAEAAA (staple (positions not given here); also: HBS: N-terminal main-chain i,i+4 H-bond replaced by C-C bond (ring-closing metathesis), residues 1-4) [HBS 7^mut]
12 | < 10 | AEGIYRADILRTEEGN [Peptide 4]
13 | 37 | FEGIYRLELLKAEEAN [Peptide 7]
14 | < 10 | FEAIYRLEKLKAEEAN (staple (positions not given here); lactam 9-13; also: HBS: N-terminal main-chain i,i+4 H-bond replaced by C-C bond (ring-closing metathesis), residues 1-4) [HBS 15^]
15 | 55 | FEGLLRLWLRKAEEAN (staple (positions not given here); also: HBS: N-terminal main-chain i,i+4 H-bond replaced by C-C bond (ring-closing metathesis), residues 1-4) [HBS 12]
16 | < 10 | AEGIYRTDILRTEEGN [Peptide 3]
17 | 20 | FEGIYRTELLKAEEAN [Peptide 6]
18 | 30 | FEGIYRLELLK[Aib]EE[Aib]N [Peptide 11]
19 | 50 | FEGLLRLWLRK[Aib]EE[Aib]N [Peptide 10]
20 | < 5 | FEGIYRLELLK (staple (positions not given here); also: HBS: N-terminal main-chain i,i+4 H-bond replaced by C-C bond (ring-closing metathesis), residues 1-4) [HBS 8]
21 | 13 | FEGIYRTDILRTEEGN [Peptide 1]
22 | 60 | FEGLLRLWLRK[Aib]EE[Aib]N (staple (positions not given here); not fully specified (C-terminus, bridges); also: hydrogen bond surrogate: N-terminal main-chain i,i+4 H-bond replaced by C-C bond) [HBS 10]
23 | 56 | FEGIYRLEKLKAEEANRR (staple (positions not given here); also: HBS: N-terminal main-chain i,i+4 H-bond replaced by C-C bond (ring-closing metathesis), residues 1-4) [HBS 16]
24 | < 10 | FGEGIYRTDILRTEEGN [Peptide 2]
25 | < 10 | FEGIYRTDILR [Peptide 5]
